{"source": "patent US20030186329A1", "about": "“Use of substrate subtraction libraries to distinguish enzyme specificities” (The Scripps Research Institute, priority 1998, published 2003)", "substrate": "CC(C)[C@H](NC(=O)[C@H](CO)NC(=O)CNC(=O)CNC(=O)[C@@H](NC(=O)[C@@H](NC(=O)[C@H](CCCNC(=N)N)NC(=O)CNC(=O)[C@@H]1CCCN1C(=O)[C@H](CO)NC(=O)[C@H](CCCCN)NC(=O)[C@@H](N)CCCCN)C(C)C)C(C)C)C(=O)N[C@@H](C)C(=O)N[C@@H](Cc1c[nH]cn1)C(=O)O", "assay": "Kinetics of cleavage of synthetic peptides by t-PA (HPLC, Eadie-Hofstee analysis)", "assay_type": "biochemical", "conditions": "other: hydrolysis of peptide by t-PA", "protocol": "Concentrations of functional t-PA and u-PA were measured by active site titration with 4-methylumbelliferyl p-guanidinobenzoate (Jameson, G., et al., (1973) Biochem. J. 131, 107-117) using a Perkin-Elmer LS 50B Luminescence Fluorometer as previously described (Madison, E. L., et al., (1995) J. Biol. Chem. 270: 7558-7562). In addition, the enzymes were titrated with a standard PAI-1 preparation that had been previously titrated against a trypsin primary standard. Total enzyme concentrations were measured by ELISA.\nIndividual phage stocks were prepared and digested with no enzyme, t-PA, u-PA, or u-PA in the presence of 1 mM amiloride, a specific inhibitor of u-PA. Kinetic-data were obtained by incubating various concentrations of peptide with a constant enzyme concentration to achieve between 5 and 20% cleavage of the peptide in each reaction. For assays with u-PA, enzyme concentration was either 815 or 635 nM. For assays with t-PA enzyme concentration was 700 nM. […] The buffer used in these assays has been described (Madison, E. L., et al., 1995). Reactions were stopped by addition of triflouroacetic acid to 0.33% or by freezing on dry ice. Cleavage of the 13 and 14 residue peptides was monitored by reverse phase HPLC as described (Madison, E. L., et al., 1995). The 4-6 residue peptides were acylated at their amino termini and amidated at their carboxyl termini. Cleavage of the 4-6 residue peptides was monitored by hydrophilic interaction HPLC chromatography (HILIC) (Alpert, A. J. (1990) J. Chromatog. 499, 177-196.) using a polyhydroxyaspartamine column from PolyLC (Columbia, Md.). Buffer A was 50 mM triethylamine phosphate in 10% acetonitrile and buffer B was 10 mM triethylamine phosphate in 80% acetonitrile. Peptides were eluted by a gradient which was varied from 100% Buffer B to 100% Buffer A during a 13 minute interval. The percent of cleaved peptide was calculated by dividing the area under the product peaks by the total area under substrate and product peaks. […] Errors were determined as described (Taylor, J. R., 1982) An introduction to error analysis. […]"}
{"protein": "t-PA (Homo sapiens) (protein) SYQVICRDEKTQMIYQQHQSWLRPVLRSNRVEYCWCNSGRAQCHSVPVKSCSEPRCFNGGTCQQALYFSDFVCQCPEGFAGKCCEIDTRATCYEDQGISYRGTWSTAESGAECTNWNSSALAQKPYSGRRPDAIRLGLGNHNYCRNPDRDSKPWCYVFKAGKYSSEFCSTPACSEGNSDCYFGNGSAYRGTHSLTESGASCLPWNSMILIGKVYTAQNPSAQALGLGKHNYCRNPDGDAKPWCHVLKNRRLTWEYCDVPSCSTCGLRQYSQPQFRIKGGLFADIASHPWQAAIFAKHRRSPGERFLCGGILISSCWILSAAHCFQERFPPHHLTVILGRTYRVVPGEEEQKFEVEKYIVHKEFDDDTYDNDIALLQLKSDSSRCAQESSVVRTVCLPPADLQLPDWTECELSGYGKHEALSPFYSERLKEAHVRLYPSSRCTSQHLLNRTVTDNMLCAGDTRSGGPQANLHDACQGDSGGPLVCLNDGRMTLVGIISWGLGCGQKDVPGVYTKVTNYLDWIRDNMRP", "values": [{"measurement": "Km", "value": 15, "unit": "mM"}, {"measurement": "kcat", "value": 0.0043, "unit": "s⁻¹"}, {"measurement": "kcat/Km", "value": 0.29, "unit": "M⁻¹ s⁻¹"}]}
